Patent publication US12215162B2, “BAFF-R targeted chimeric antigen receptor-modified T-cells and uses thereof” (CITY OF HOPE, priority 2016, dated 2025)

B1: Humanized HC1 + LC2: humanized C90 variant, heavy chain variant 1 with light chain variant 2 (antibody, V domains shown)
VH: QVQLQESGPGLVKPSQTLSLTCTVSGDSITSGYWNWIRQHPGKGLEYIGYISYSGSTYYNPSLKSRVTISRDTSKNQFSLKLSSVTAADTAVYYCASPNYPFYAMDYWGQGTLVTVSS
VL: DIVLTQSPATLSLSPGERATLSCRASESVDNYGISFMNWFQQKPGQAPRLLIYAASNRATGIPARFSGSGSGTDFTLTISSLEPEDFAVYYCQQSKEVPWTFGGGTKVEIKRTV
B2: Humanized HC2 + LC1 (antibody, V domains shown)
VH: EVQLQESGPGLVKPSQTLSLTCTVSGDSITSGYWNWIRQHPGKGLEYIGYISYSGSTYYNPSLKSRVTISRDTSKNQYSLKLSSVTAADTAVYYCASPNYPFYAMDYWGQGTLVTVSS
VL: EIVLTQSPATLSLSPGERATLSCRASESVDNYGISFLNWFQQKPGQAPRLLIYAASNRATGIPARFSGSGSGTDFTLTISSLEPEDFAVYYCQQSKEVPWTFGGGTKVEIKRTV
B3: Humanized HC3 + LC3: humanized C90 variant, heavy chain variant 3 with light chain variant 3 (antibody, V domains shown)
VH: EVQLQESGPGLVKPSETLSLTCSVSGDSITSGYWNWIRQPPGKGLEYIGYISYSGSTYYNPSLKSRVTISRDTSKNQYSLRLSSVTAADTALYYCASPNYPFYAMDYWGQGTRVTVSS
VL: DIVMTQSPSSLSASVGDRVTITCRASESVDNYGISFMNWFQQKPGKAPKLLIYAASNLGSGVPSRFSGSGSGTDFTLTISSLQPEDFATYYCQQSKEVPWTFGQGTKVEIKRTV
B4: Humanized HC1 + LC1 (antibody, V domains shown)
VH: QVQLQESGPGLVKPSQTLSLTCTVSGDSITSGYWNWIRQHPGKGLEYIGYISYSGSTYYNPSLKSRVTISRDTSKNQFSLKLSSVTAADTAVYYCASPNYPFYAMDYWGQGTLVTVSS
VL: EIVLTQSPATLSLSPGERATLSCRASESVDNYGISFLNWFQQKPGQAPRLLIYAASNRATGIPARFSGSGSGTDFTLTISSLEPEDFAVYYCQQSKEVPWTFGGGTKVEIKRTV
B5: Humanized HC3 + LC1 (antibody, V domains shown)
VH: EVQLQESGPGLVKPSETLSLTCSVSGDSITSGYWNWIRQPPGKGLEYIGYISYSGSTYYNPSLKSRVTISRDTSKNQYSLRLSSVTAADTALYYCASPNYPFYAMDYWGQGTRVTVSS
VL: EIVLTQSPATLSLSPGERATLSCRASESVDNYGISFLNWFQQKPGQAPRLLIYAASNRATGIPARFSGSGSGTDFTLTISSLEPEDFAVYYCQQSKEVPWTFGGGTKVEIKRTV
B6: Humanized HC3 + LC2: humanized C90 variant, heavy chain variant 3 with light chain variant 2 (antibody, V domains shown)
VH: EVQLQESGPGLVKPSETLSLTCSVSGDSITSGYWNWIRQPPGKGLEYIGYISYSGSTYYNPSLKSRVTISRDTSKNQYSLRLSSVTAADTALYYCASPNYPFYAMDYWGQGTRVTVSS
VL: DIVLTQSPATLSLSPGERATLSCRASESVDNYGISFMNWFQQKPGQAPRLLIYAASNRATGIPARFSGSGSGTDFTLTISSLEPEDFAVYYCQQSKEVPWTFGGGTKVEIKRTV
B7: Humanized HC1 + LC3: humanized C90 variant, heavy chain variant 1 with light chain variant 3 (antibody, V domains shown)
VH: QVQLQESGPGLVKPSQTLSLTCTVSGDSITSGYWNWIRQHPGKGLEYIGYISYSGSTYYNPSLKSRVTISRDTSKNQFSLKLSSVTAADTAVYYCASPNYPFYAMDYWGQGTLVTVSS
VL: DIVMTQSPSSLSASVGDRVTITCRASESVDNYGISFMNWFQQKPGKAPKLLIYAASNLGSGVPSRFSGSGSGTDFTLTISSLQPEDFATYYCQQSKEVPWTFGQGTKVEIKRTV

Target: T1, recombinant extracellular domain of human BAFF-R (Homo sapiens, UniProt Q96RJ3)
T1 construct: The antigen was commercial, recombinant extracellular domain of human BAFF-R; purchased
Assay: Biacore analysis of binding affinity of humanized BAFF-R antibody variants
From the text: The chimeric antibody, clone 90, was humanized while retaining its binding specificity and cytotoxic effects. Through computational analysis of the CDRs and predicted structure, three variants of the heavy and three variants of the light chain were produced with varying degrees of likeness to human antibodies. A total of nine combinational variants was constructed from the humanized heavy and light chains.
The chimeric anti-BAFF-R antibody C90 was humanized with several variants. The humanization process took into consideration and analysis of the variable region and specifically the CDRs of the chimeric antibody. From there, three variants for each heavy and light chain was developed with varying degrees of human-likeness ranging from 1 the most human to 3 the most conservative to the chimeric. The variants were combined to produce 9 variants. Biacore analysis was performed on each variant as well as the chimeric parental C90 to determine their equilibrium dissociation constant KD. The antigen was commercial, recombinant extracellular domain of human BAFF-R.

B1 and B2 are within 1.5-fold of each other in kdis: 0.0023 s⁻¹ for the first, 0.002 s⁻¹ for the second.

B3 and B4 are within 1.5-fold of each other in kdis: 0.0023 s⁻¹ for the first, 0.0024 s⁻¹ for the second.

B5 and B6 are within 1.5-fold of each other in kdis: 0.0031 s⁻¹ for the first, 0.0037 s⁻¹ for the second.

With B7 the kdis was 0.0021 s⁻¹.

B1 and B2 are within 1.5-fold of each other in kon: 620000 M⁻¹ s⁻¹ for the first, 770000 M⁻¹ s⁻¹ for the second.

B3 and B4 are within 1.5-fold of each other in kon: 680000 M⁻¹ s⁻¹ for the first, 610000 M⁻¹ s⁻¹ for the second.

B5 and B6 are within 1.5-fold of each other in kon: 820000 M⁻¹ s⁻¹ for the first, 1.2e+06 M⁻¹ s⁻¹ for the second.

Work on B7 yielded a kon of 410000 M⁻¹ s⁻¹.
